For experiment [1], the target named is SaFlaH (Sulfolobus acidocaldarius, UniProt Q4J9K9, K33A). Kind of experiment: fluorescence titration. It is filed as binding. The settings on record: 1 µM protein, 5 mM MnCl2, pH 6.2, 25 °C; labelled compound.
In experiment [2] the target is SaFlaH (Sulfolobus acidocaldarius, UniProt Q4J9K9, D122N). Kind of experiment: fluorescence titration. It is filed as binding. The settings on record: 1 µM protein, 5 mM MnCl2, pH 6.2, 25 °C; labelled compound.
In experiment [3] the target is Pyrococcus furiosus FlaH, wild type (PfFlaH) (Pyrococcus furiosus). Kind of experiment: MST.
In experiment [4] the target is T1, StrepII-tagged Sulfolobus acidocaldarius FlaH (StrepII-FlaH) (Sulfolobus acidocaldarius, UniProt Q4J9K9 1-228).
T1 sequence: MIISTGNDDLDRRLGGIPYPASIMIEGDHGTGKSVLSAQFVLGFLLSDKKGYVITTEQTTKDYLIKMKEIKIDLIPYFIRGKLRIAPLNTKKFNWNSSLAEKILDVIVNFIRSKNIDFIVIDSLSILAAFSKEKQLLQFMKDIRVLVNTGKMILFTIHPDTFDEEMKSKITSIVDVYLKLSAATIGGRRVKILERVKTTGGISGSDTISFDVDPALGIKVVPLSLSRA
Kind of experiment: pull-down.

Chain of SaFlaH (Sulfolobus acidocaldarius, UniProt Q4J9K9, D122N) (Q4J9K9 whole entry D122N): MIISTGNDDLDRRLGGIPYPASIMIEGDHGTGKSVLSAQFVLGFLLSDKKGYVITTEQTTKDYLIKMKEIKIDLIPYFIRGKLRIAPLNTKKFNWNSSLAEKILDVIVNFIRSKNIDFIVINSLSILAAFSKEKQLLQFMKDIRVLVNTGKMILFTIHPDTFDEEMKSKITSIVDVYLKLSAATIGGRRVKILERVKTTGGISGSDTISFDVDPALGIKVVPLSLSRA
Chain of SaFlaH (Sulfolobus acidocaldarius, UniProt Q4J9K9, K33A) (Q4J9K9 whole entry K33A): as the sequence (Q4J9K9 whole entry D122N) above, with K33A, N122D counted along it

Consider `CNc1ccccc1C(=O)O[C@H]1[C@@H](O)[C@H](n2cnc3c(N)ncnc32)O[C@@H]1COP(=O)(O)OP(=O)(O)OP(=O)(O)O` (mixture of isomers) [MANT-ATP, 2’-/3’-O-(N’-methylanthraniloyl) adenosine-5’-O-triphosphate], for which the “fluorescence titration (FRET from tryptophan to MANT)” value is “SaFlaH^K33A and SaFlaH^D122N only bound MANT-ATP with strongly reduced affinity” on SaFlaH [1]; “SaFlaH^K33A and SaFlaH^D122N only bound MANT-ATP with strongly reduced affinity” at SaFlaH [2].
In turn, “Pyrococcus furiosus FlaI (PfFlaI) (enzyme)” yielded a dissociation constant (Kd) in experiment [3] of 1 µM.

B1: His6-tagged Sulfolobus acidocaldarius FlaXc (FlaX without its first 37 residues) (domain or fragment, UniProt Q4J9K6 38-250, looked up)
chain: KRVQTQQSPQNISQEQRFPTQQKPANDETSKYSSDSIEKALKDVLGKMDKKENELLTNITNSFNEMKKLIENLNSAVEELALSVKASESDSSSPFNTIIQQEEEHVSREISTVSQLVGSNNPNNVNLTWFIKSCVLLEIMEYDEEKIKQLYELGYVSSDDMFTILRILSFIKNRKITAKELASIAANIAESYSSLTPEIKKYIMILEGGGVNG
On to B1, for which the binding result in experiment [4] is “binds”.

B2: His6-tagged Sulfolobus acidocaldarius FlaXcc1 (FlaXc without the N-terminal domain 38-86) (domain or fragment, UniProt Q4J9K6 87-250, looked up)
chain: KKENELLTNITNSFNEMKKLIENLNSAVEELALSVKASESDSSSPFNTIIQQEEEHVSREISTVSQLVGSNNPNNVNLTWFIKSCVLLEIMEYDEEKIKQLYELGYVSSDDMFTILRILSFIKNRKITAKELASIAANIAESYSSLTPEIKKYIMILEGGGVNG
For the molecule B2, in experiment [4], the binding result is listed as “binds”.
